The supplement of paper PMC10567573

B1: ZMYND11 (parent)
chain: YCSIKCQQEHWHAEHKRTCRRKR

Variants of: B1
Assay: protein stability index of a GFP-peptide fusion (GPS, HEK-293T) (PSI 1-6); higher = more stable
Details: c terminus: native
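Note: lentivirally expressed fusions sorted by FACS into six bins by GFP to DsRed ratio, PSI derived from sequencing read proportions per bin multiplied by bin number.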

Protein stability index of substitutions, site by site:
K22: M 1.55; N 1.37; P 1.94; Q 2.64; R 1.79; S 3.04; T 1.91; V 2.15; W 2.97; Y 1.53
R23: A 2.28; C 2.04; D 1.86; E 2.77; F 1.58; G 5.07; H 2.26; K 2.11; L 2.2; M 2.15; N 2.09; P 3.21; Q 3.2; S 2.64; T 2.26; V 1.26; W 4.23; Y 1.41
